Assay [1] has as its target water-soluble hFcRn (human) (UniProt P55899). The assay is described as follows: SPR (Proteon XPR36), shFcRn immobilized on GLC chip, hIgG1 as analyte, pH 6.0.
Assay [2] concerns the target T1, human FcRn (co-crystal with HL161BK Fab) (human, UniProt P55899 24-297; P61769 21-119).
T1 construct: also called hFcRn
The assay is described as follows: X-ray co-crystal structure at 2.4 Å.
Description: There are two copies each of hFcRn and HL161BK Fab per asymmetric unit. […] A data set was collected at ESRF beamline ID30A-1.

Sequence of water-soluble hFcRn (human) (P55899 24-297 limits assumed, chain 1 of 2): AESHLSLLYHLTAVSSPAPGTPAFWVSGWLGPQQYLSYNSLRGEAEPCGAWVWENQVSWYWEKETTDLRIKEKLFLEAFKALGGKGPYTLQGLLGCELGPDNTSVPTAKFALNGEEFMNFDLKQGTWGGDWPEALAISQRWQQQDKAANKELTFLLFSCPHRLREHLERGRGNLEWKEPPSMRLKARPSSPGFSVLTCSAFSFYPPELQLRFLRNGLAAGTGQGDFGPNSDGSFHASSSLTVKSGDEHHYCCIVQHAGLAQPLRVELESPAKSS
Sequence of water-soluble hFcRn (human) (b2m, as listed by the source limits assumed, chain 2 of 2): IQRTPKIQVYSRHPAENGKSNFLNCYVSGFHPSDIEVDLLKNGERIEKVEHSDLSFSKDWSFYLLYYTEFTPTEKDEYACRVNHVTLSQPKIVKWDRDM
T1 sequence (P55899 24-297 limits assumed, chain 1 of 2): as the sequence (P55899 24-297 limits assumed, chain 1 of 2) above
T1 sequence (P61769 21-119 limits assumed, chain 2 of 2): as the sequence (b2m, as listed by the source limits assumed, chain 2 of 2) above

In assay [1], hIgG1 (antibody) showed a Kd of 1.4 nM, a dissociation rate constant (koff) of 0.00046 s⁻¹ and a kon of 320000 M⁻¹ s⁻¹.

B1: HL161BK antibody Fab fragment (Fab, V domains shown)
VH: QLLLQESGPGLVKPSETLSLTCTVSGGSLSSSFSYWVWIRQPPGKGLEWIGTIYYSGNTYYNPSLKSRLTISVDTSKNHFSLKLSSVTAADTAVYYCARRAGILTGYLDSWGQGTLVTVSS
VL: SYVLTQSPSVSVAPGQTARITCGGNNIGSKSVHWYQQKPGQAPVLVVYDDSDRPSGIPERFSASNSGNTATLTISRVEAGDEADYYCQVWDSSSDHVVFGGGTKLTVLGQPKAAPSVTL
notes: HL161BK is HL161B with asparagine (N) at position 83 of the heavy-chain variable framework replaced by lysine (K); It was used as a Fab in the crystal; also called HL161BK Fab
For the molecule B1, the binding result in assay [2] is reported as “binds”.

The values above are taken from patent US20170210805A1 (published 2017).
